biological target: HLA-A*02:01 (Homo sapiens, UniProt P04439, D140Y/D185E/D98H/E176V/E277Q/G131W/G231S/I119V/I121R/I166T/I218V/L300P/L318F/N151K/N90K/P208A/P217A/Q86G/Q94H/R138H/R169H/T345S); experiment: MHC binding assay (UV-ligand exchange, beta2m ELISA); conditions: peptide exchange yield, HLA-A*02:01, UV-ligand exchange
Excerpt: Candidate peptides for T cell based therapies according to the present invention were further tested for their MHC binding capacity (affinity). The individual peptide-MHC complexes were produced by UV-ligand exchange, where a UV-sensitive peptide is cleaved upon UV-irradiation, and exchanged with the peptide of interest as analyzed. Only peptide candidates that can effectively bind and stabilize the peptide-receptive MHC molecules prevent dissociation of the MHC complexes. To determine the yield of the exchange reaction, an ELISA was performed based on the detection of the light chain (β2m) of stabilized MHC complexes. The assay was performed as generally described in Rodenko et al. (Rodenko et al., 2006).
96 well MAXISorp plates (NUNC) were coated over night with 2 ug/ml streptavidin in PBS at room temperature, washed 4× and blocked for 1 h at 37° C. in 2% BSA containing blocking buffer. Refolded HLA-A*02:01/MLA-001 monomers served as standards, covering the range of 15-500 ng/ml. Peptide-MHC monomers of the UV-exchange reaction were diluted 100 fold in blocking buffer. Samples were incubated for 1 h at 37° C., washed four times, incubated with 2 ug/ml HRP conjugated anti-β2m for 1 h at 37° C., washed again and detected with TMB solution that is stopped with […]. Absorption was measured at 450 nm. Candidate peptides that show a high exchange yield (preferably higher than 50%, most preferred higher than 75%) are generally preferred for a generation and production of antibodies or fragments thereof, and/or T cell receptors or fragments thereof, as they show sufficient avidity to the MHC molecules and prevent dissociation of the MHC complexes.

| Peptide exchange (MHC class I binding score) | Substance |
| --- | --- |
| +++ (≥50 = +++) | 17 (ILAQQVHAL; listed as Homo sapiens) [compound 17] |
| +++ (≥50 = +++) | 112 (LLFDHLEPIEL; listed as Homo sapiens) [compound 112] |
| ++ (≥20% = ++) | 67 (LLDVLAPLV; listed as Homo sapiens) [compound 67] |
| +++ (≥50 = +++) | 85 (FVMSEIRTV; listed as Homo sapiens) [compound 85] |
| +++ (≥50 = +++) | 18 (YVLDLAAKV; listed as Homo sapiens) [compound 18] |
| ++ (≥20% = ++) | 89 (SLLLAVTEV; listed as Homo sapiens) [compound 89] |
| ++ (≥20% = ++) | 36 (SLFGKKYIL; listed as Homo sapiens) [compound 36] |
| ++ (≥20% = ++) | 76 (VLADDHLIEV; listed as Homo sapiens) [compound 76] |
| ++ (≥20% = ++) | 78 (ALLDTVVQA; listed as Homo sapiens) [compound 78] |
| +++ (≥50 = +++) | 34 (ELNNQNFYL; listed as Homo sapiens) [compound 34] |
| ++ (≥20% = ++) | 35 (VLHSLQTQL; listed as Homo sapiens) [compound 35] |
| ++ (≥20% = ++) | 50 (SLSDHIVLL; listed as Homo sapiens) [compound 50] |
| ++ (≥20% = ++) | 81 (SLLPALPKL; listed as Homo sapiens) [compound 81] |
| ++ (≥20% = ++) | 88 (TLAELHISL; listed as Homo sapiens) [compound 88] |
| ++ (≥20% = ++) | 64 (LLAASVALA; listed as Homo sapiens) [compound 64] |
| +++ (≥50 = +++) | 74 (GLFHKQVTV; listed as Homo sapiens) [compound 74] |
| +++ (≥50 = +++) | 46 (GLSEVLVQI; listed as Homo sapiens) [compound 46] |
| +++ (≥50 = +++) | 13 (KIMAQILTV; listed as Homo sapiens) [compound 13] |
| +++ (≥50 = +++) | 51 (NLWPMILTL; listed as Homo sapiens) [compound 51] |
| ++ (≥20% = ++) | 77 (SLIKHKIML; listed as Homo sapiens) [compound 77] |
| ++ (≥20% = ++) | 8 (GLASFKSFL; listed as Homo sapiens) [compound 8] |
| ++ (≥20% = ++) | 110 (LLDLHSYLL; listed as Homo sapiens) [compound 110] |

| Peptide exchange (MHC class I binding score) | Substance |
| --- | --- |
| ++ (≥20% = ++) | 101 (HIYDKAFITV; listed as Homo sapiens) [compound 101] |
| ++ (≥20% = ++) | 84 (YLMDEGAHL; listed as Homo sapiens) [compound 84] |
| ++ (≥20% = ++) | 42 (VILDTGTIQL; listed as Homo sapiens) [compound 42] |
| +++ (≥50 = +++) | 27 (SLSDLLVSL; listed as Homo sapiens) [compound 27] |
| +++ (≥50 = +++) | 38 (VLLDTILQL; listed as Homo sapiens) [compound 38] |
| ++ (≥20% = ++) | 33 (FIADVVEKI; listed as Homo sapiens) [compound 33] |
| +++ (≥50 = +++) | 4 (FLSQDIITV; listed as Homo sapiens) [compound 4] |
| +++ (≥50 = +++) | 80 (KLASMLETL; listed as Homo sapiens) [compound 80] |
| +++ (≥50 = +++) | 83 (IQWSIVPEV; listed as Homo sapiens) [compound 83] |
| +++ (≥50 = +++) | 22 (FLSPPLPSV; listed as Homo sapiens) [compound 22] |
| +++ (≥50 = +++) | 60 (ILWKDIEYV; listed as Homo sapiens) [compound 60] |
| ++ (≥20% = ++) | 61 (SLMGILLRI; listed as Homo sapiens) [compound 61] |
| +++ (≥50 = +++) | 75 (FLIKSINLV; listed as Homo sapiens) [compound 75] |
| +++ (≥50 = +++) | 79 (ALADIVWRA; listed as Homo sapiens) [compound 79] |
| ++ (≥20% = ++) | 99 (GLAPHLEQI; listed as Homo sapiens) [compound 99] |
| ++ (≥20% = ++) | 21 (RLIQGDQILSV; listed as Homo sapiens) [compound 21] |
| +++ (≥50 = +++) | 43 (YLKDELDEL; listed as Homo sapiens) [compound 43] |
| +++ (≥50 = +++) | 102 (LLFDVHTTL; listed as Homo sapiens) [compound 102] |
| +++ (≥50 = +++) | 73 (GLDGIPFTV; listed as Homo sapiens) [compound 73] |
| +++ (≥50 = +++) | 49 (VLIVEVPGV; listed as Homo sapiens) [compound 49] |
| ++ (≥20% = ++) | 37 (VLAPVILML; listed as Homo sapiens) [compound 37] |

Source: US9993536B2, “Peptides and combination of peptides and scaffolds for use in immunotherapy against renal cell carcinoma (RCC) and other cancers” (immatics biotechnologies GmbH, priority 2015, dated 2018)
